Test results as given in the RNAGym collection of RNA variant scans (doi:10.1073/pnas.2313332121).
Variants at the floor of the assay were thinned out.

B1: TPR 5TU (parent)
chain: GGAUCUUCUCGAUCUAACAAAAAAGACAAAUCUGCCACAAAGCUUGAGAGCAUCUUCGGAUGCAGAGGCGGCAGCCUUCGGUGGCGCGAUAGCGCCAACGUUCUCAACUAUGACACGCAAAACGCGUGCUCCGUUGAAUGGAGUUUAUCAUG

Variants of: B1
Test: polymerase ribozyme fitness, log enrichment relative to wild type (log ratio); higher = more active; in vitro selection for triplet polymerase activity
Outline: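 Libraries of mutants in each subunit of a heterodimeric triplet polymerase ribozyme were generated by PCR and transcribed. In triplicate, each went through one in vitro selection round: annealing with biotinylated primer, partner subunit and triplets; frozen incubation at −7 °C; gel excision of extended constructs; streptavidin-bead capture; RT-PCR. Fitness, taken from Illumina sequencing of input and output libraries, is the logarithm of a genotype's enrichment over wild-type enrichment, averaged across replicates with inverse-variance weights. The logarithm is base 2, and genotypes needed ≥10 input reads and ≥1 read per output to be kept.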

| Variant | polymerase ribozyme fitness (log ratio) |
| --- | --- |
| C79G C87U U144G | -4.04 |
| G70A U82A C87G A89U C103A C105A | ≤ -4.2 |
| G80C C87A A89C A97G U102C A137G A138G U151A | ≤ -4.2 |
| G80A C99G G124A | -0.389 |
| G80A A97G | -1.88 |
| C75U G94C | 0.488 |
| C76U G83A | -0.0654 |
| G70A G86U G88U C99G C105G C114G | ≤ -4.2 |
| C76A C87G | -4.07 |
| G81A A147U | 0.732 |
| C75U G92A | -2.99 |
| C76A C96A A122C C123A | -1.55 |
| C76A A142C | -2.3 |
| A73G A122C | 0.468 |
| G74A A106U A107U G133U | -3.93 |
| A73U C93U A120G | -2.61 |
| C79U U102C | ≤ -4.2 |
| G80A U82G C123A G152U | -4.06 |
| C79G C96U | -3.8 |
| C76U C93G | -2.8 |
| G80A C93G A97G A115C | -3.64 |

| Variant | polymerase ribozyme fitness (log ratio) |
| --- | --- |
| C76G C87A U144C G152A | ≤ -4.2 |
| A73U C76U | -1.32 |
| G70A U77G U78G C87A A97C A122U | ≤ -4.2 |
| A73U G83U G84U A97C G100U C105A | ≤ -4.2 |
| A73U G141A | -2.24 |
| G80U G94A C96A U101A C149A | ≤ -4.2 |
| C76A G84U A121G A122G U146A | -3.68 |
| G71C C87G G128A | ≤ -4.2 |
| C76U A119C | -0.584 |
| C76U A119U | -0.561 |
| C76G U77C G133U | ≤ -4.2 |
| C76U C85G A121U U148C | -2.83 |
| C75G C76G G92C | ≤ -4.2 |
| G81A A91U U101G C103A | ≤ -4.2 |
| C76U U101G G124A | -0.411 |
| C76U G83C U134A A142U | ≤ -4.2 |
| A73G G81A C85U | 0.246 |
| G74C C79G U82A C93U C108U | ≤ -4.2 |
| A73G C96G | -0.616 |
| U78A G83U | ≤ -4.2 |
| C75G G86U C95U C99U | ≤ -4.2 |

| Variant | polymerase ribozyme fitness (log ratio) |
| --- | --- |
| C79A G88A G133U G140A | ≤ -4.2 |
| A73G A120G | 0.0734 |
| G71U G80C C93U A97U C132A | ≤ -4.2 |
| C79G C85A C114U | ≤ -4.2 |
| U77A A91G G94A | ≤ -4.2 |
| G70A C75A C85G G140C | ≤ -4.2 |
| U78C U82G U102G | -3.57 |
| U78A C105U A115U | ≤ -4.2 |
| C75U G80A C85A U146C | -3.11 |
| C76U A89C C118G | -1.8 |
| G74A A91C A147U U148C | ≤ -4.2 |
| G70A U144C | -3.66 |
| C76A A97U | -1.06 |
| A73G G86U C105U A106U U144C | -3.89 |
| G74A G84C C95U A137C | ≤ -4.2 |
| C75G C87G C93U C103G | ≤ -4.2 |
| C72U U78A G84A | ≤ -4.2 |
| C75U G94A A142C | -2.13 |
| G81A C87U U146G | -3.41 |
| C76U U78C A137G | -2.11 |
| G80C C85U | -3.96 |

| Variant | polymerase ribozyme fitness (log ratio) |
| --- | --- |
| C75A G80C C96G C99A G117A | ≤ -4.2 |
| C75U C95U | 0.131 |
| C75G C93A | -4.14 |
| A73U C96G A98U A120U A137G | -2.92 |
| G80A A91G A122U | -2.08 |
| U77A C132U | ≤ -4.2 |
| U77G C87U G88A G140C A142G | ≤ -4.2 |
| A73G A115G G141A | -2.44 |
| G70C G81A C96A C108U A120G A138C | ≤ -4.2 |
| U77A C96G G141U | ≤ -4.2 |
| C76U G84U A113U A122U | -3.77 |
| U78G C87G G92U A97C | ≤ -4.2 |
| C75U A113C | -3.87 |
| C75A C116U | ≤ -4.2 |
| A73G G140A | -2.98 |
| A73G C85U | -0.115 |
| C79A U90A G133U G143C | ≤ -4.2 |
| U77C C114U | ≤ -4.2 |
| G70C G86C | ≤ -4.2 |
| C69A U148A | -4.08 |
